# Measured values taken from EP2341079A1 (Institut Pasteur, dated 2011).
# B1: C3 binder (designed binder)
# chain: SVKVKFLLNGEEKEVDTSKIRDVCRQGKNVKFLYNDNGKYGAGNVDEKDAPKELLDMLARAEREKK
# notes: Sac7d variant made with a His-tag in E. coli; monomeric by gel filtration; Used free, biotinylated on a streptavidin chip, labelled with AlexaFluor 680, or NHS-coupled to agarose, as said under assay; also called clone C3; not shown: RGS-(His)6 tag from vector pFP1001 (pQE30 derivative)
# Key:
# [1] = biological target: T1, hIgG (IgG pool from human serum containing hIgG1, hIgG2, hIgG3, hIgG4; Fluka reference number 56834); assay: SPR (BIAcore 3000), hIgG on CM5 chip, binder injected, 1:1 global fit
# T1 construct: Polyclonal mixture from human serum; also called human IgG; Immunoglobulin G from human serum
# streptavidin = streptavidin (UniProt P22629 37-163, limits assumed); assay: ELISA (data not shown)
# neutravidin = neutravidin (UniProt P02701 25-152); assay: ELISA (data not shown)
# [2] = biological target: T2, hIgG1 (Sigma-Aldrich reference number I5029) (human, UniProt P01857-1 1-330 = IgG part); assay: SPR, hIgG1 immobilised at low density, C3 injected 16-1000 nM, global fit (Fig. 6)
# T2 construct: Purified subclass, bought; also called Human IgG1; human IgG1 subclass
# T2 sequence (P01857 other isoform, or with tags, fused parts or gaps): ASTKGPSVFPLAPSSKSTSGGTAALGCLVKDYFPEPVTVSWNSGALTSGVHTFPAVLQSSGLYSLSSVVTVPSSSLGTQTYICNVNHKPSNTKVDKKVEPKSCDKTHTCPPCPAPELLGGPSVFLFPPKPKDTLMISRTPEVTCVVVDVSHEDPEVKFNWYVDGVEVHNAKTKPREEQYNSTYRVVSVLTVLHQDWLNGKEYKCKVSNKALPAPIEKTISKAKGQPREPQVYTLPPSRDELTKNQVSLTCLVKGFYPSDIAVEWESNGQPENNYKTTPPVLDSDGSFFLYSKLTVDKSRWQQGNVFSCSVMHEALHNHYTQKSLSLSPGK
# neutravidin, sequence (P02701 25-152): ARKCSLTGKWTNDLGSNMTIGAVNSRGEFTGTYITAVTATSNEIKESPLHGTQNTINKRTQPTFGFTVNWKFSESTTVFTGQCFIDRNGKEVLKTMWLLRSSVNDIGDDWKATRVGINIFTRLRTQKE
# streptavidin, sequence (P22629 37-163 limits assumed): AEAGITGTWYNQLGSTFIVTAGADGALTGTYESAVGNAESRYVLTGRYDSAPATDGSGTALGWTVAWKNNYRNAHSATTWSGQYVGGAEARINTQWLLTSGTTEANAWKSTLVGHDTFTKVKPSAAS
binder,measurement,setting,value
B1,Kd,[1],74 nM
same,koff,[1],0.066 s⁻¹
same,kon,[1],890000 M⁻¹ s⁻¹
same,binding result,streptavidin,no binding
same,binding result,neutravidin,no binding
same,Kd,[2],94 nM
same,koff,[2],0.051 s⁻¹
same,kon,[2],540000 M⁻¹ s⁻¹
